Experimental findings from patent publication US20200347130A1 (JIANGSU HENGRUI MEDICINE, published 2020) are described below.

Changes are numbered by the printed parent chain.

Sequences and labels used below:
B1: h1722-010 (antibody, V domains shown)
VH: EVQLVQSGAEVKKPGSSVKVSCKASGGTFSDYWMHWVRQAPGQGLEWIGMLHPNSGTTSFNEKFKIRVTITADKSTSTAYMELSSLRSEDTAVYYCASDYSGPFAYWGQGTLVTVSS
VL: DIQLTQSPSSLSASVGDRVTITCSASSSVNYIHWYQQKPGKAPKRWIFDTSKLASGVPSRFSGSGSGTDYTLTISSLQPEDFATYYCQQWRSNPLTFGQGTKLEIK
notes: Only variable regions are tied to this name; also called M722-010
B2: h1721-003 (antibody, V domains shown)
VH: EVTLKESGPVLVKPTETLTLTCTVSGFSLSSYGVNWIRQPPGKALEWLGVIWGDGSTNYHSALISRLTISKDTSKSQVVLTLTNMDPVDTATYYCAKNYFYGSRYGYAMDSWGQGTTVTVSS
VL: DIQMTQSPSSLSASVGDRVTITCRASENIYSSLAWYQQKPGKAPKLLIYNAKTLIEGVPSRFSGSGSGTDFTLTISSLQPEDFATYYCQHHYGTPYTFGGGTKVEIK
notes: Only variable regions are tied to this name; also called M721-003
B3: h1719-014 (antibody, V domains shown)
VH: B2 VH with N35S, I37V, A44G, S56N, A62V, F100Y, A108P, M109L, S111Y
VL: DIQMTQSPSSVSASVGDRVTITCKATQDVGTAVAWYQQKPGKSPKLLIYWASTRHTGVPERFSGSGSGTDFTLTISSLQPEDFATYFCQQYGSSVLTFGGGTKVEIK
notes: Only variable regions are tied to this name; also called M719-014
B4: ch1720 (antibody, human IgG4 S228P, kappa, V domains shown)
VH: EFQLQQSGPELVKPGASVKISCKASAYSLTDYNMNWVKQSNGKSLEWIGVINPSYGISSYNQKFKGKATLTVDQSSSTAYMHLNSLTSEDSAVYYCARQLRLPGYFDVWGTGTTVTVSS
VL: DIKMTQSPSSKNASLGERVTITCKASQDINSYLNWFQQKPGKSPKTLIYRASRLVDGVPSRFSGSGSGQDYSLTISSLEYEDMGIYYCLKYDEFPYTFGGGTKLEIKR
notes: also called chimeric antibody corresponding to m1720
B5: h1718-012 (antibody, V domains shown)
VH: EVQLVQSGAEVKKPGASVKVSCKASGYTITDYNMNWVRQAPGQRLEWIGVINPSYGITDYNQNFKDRVTITVDTSASTAYMELSSLRSEDTAVYYCAIQLRLPGYFDVWGQGTTVTVSS
VL: DIQMTQSPSSLSASVGDRVTITCKASQDINQYLNWFQQKPGKAPKTLIYRANRLVDGVPSRFSGSGSGQDYTLTISSLQPEDFATYYCLKYDEFPYTFGGGTKVEIK
notes: Only variable regions are tied to this name
B6: ch1718 (antibody, human IgG4 S228P, kappa, V domains shown)
VH: B4 VH with L29I, S58T, S59D, K63N, G66D, H82Q, R98I, T116I
VL: B4 VL with K11M, N12Y, S31N, S52N, L104V
notes: also called chimeric antibody corresponding to m1718
B7: ch1719 (antibody, human IgG4 S228P, kappa, V domains shown)
VH: QVQLKESGPGLVAPSQSLSITCTVSGFSLISYGVSWVRQPPGKGLEWLGVIWGDGNTNYHSVLISRLSIRKDDSKSQVFLKLNSLQTDDTATYYCAKNNYYGSRYGYPMDYWGQGTSVTVSS
VL: DIVMTQSHKFMSTSVGDRVSITCKATQDVGTAVAWYQQKPGHSPKLLIYWASTRHTGVPERFTGSGSGTDFTLTIDNVQSEDLADYFCQQYGSSVLTFGAGTKVELRR
notes: also called chimeric antibody corresponding to m1719
B8: ch1721 (antibody, human IgG4 S228P, kappa, V domains shown)
VH: B7 VH with S35N, N56S, V62A, R70S, K81N, N99Y, Y100F, P108A, Y111S, T116I
VL: DIQMTQSPASLSAAVGETVTITCRASENIYSSLAWYQQKQGKSPQLLVYNAKTLIETVASRFSGSGSGTQYSLKINSLQPEDFGSFYCQHHYGTPYTFGGGTKLEIKR
notes: also called chimeric antibody corresponding to m1721

The target of one assay is T1, Biotinylated CD96 antigen (human, UniProt P40200-2 22-503, limits assumed, biotinylated).
T1 sequence (looked up): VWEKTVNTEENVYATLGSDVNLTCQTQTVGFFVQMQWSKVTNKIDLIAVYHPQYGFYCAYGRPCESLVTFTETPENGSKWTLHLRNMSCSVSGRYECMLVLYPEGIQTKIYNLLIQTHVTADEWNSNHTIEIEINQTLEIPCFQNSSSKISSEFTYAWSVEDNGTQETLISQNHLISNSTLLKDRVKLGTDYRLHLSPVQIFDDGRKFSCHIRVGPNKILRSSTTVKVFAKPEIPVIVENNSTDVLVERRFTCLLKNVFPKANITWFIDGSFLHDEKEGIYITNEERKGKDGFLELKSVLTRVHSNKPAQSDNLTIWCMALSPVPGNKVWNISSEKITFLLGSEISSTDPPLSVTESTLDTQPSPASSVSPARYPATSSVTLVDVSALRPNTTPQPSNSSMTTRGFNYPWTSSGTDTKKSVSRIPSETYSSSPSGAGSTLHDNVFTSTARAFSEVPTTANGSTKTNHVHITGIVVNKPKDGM
The assay can be described thus: competition ELISA, antibody B premixed with biotinylated CD96; competitor (coated antibody A): h1721-003. The protocol:
Competitive assays of different antibodies binding to CD96 protein were used to classify binding epitopes of the antibodies. The specific experimental methods are as follows:
Antibody A was diluted to a concentration of 2 μg/ml with PBS buffer (Shanghai Yuanpei Biotechnology Co., Ltd. Cat No. B320), pH 7.4, added to a 96-well microtiter plate (Corning, Cat No. CLS3590-100EA) at a volume of 50 μl/well, and coated at 4° C. overnight. After discarding the liquid, 250 μl/well of 5% skim milk (BD skim milk, Cat No. 232100) blocking solution diluted with PBS was added, and the plate was incubated at 37° C. for 3 hours. After blocking, the blocking solution was discarded, and the plate was washed 5 times with PBST buffer (pH 7.4 PBS containing 0.05% tween-20) and stored for later use. Antibody B was diluted to 40 μg/ml and 8 μg/ml with 1% BSA, and Biotinylated CD96 antigen was simultaneously diluted to 4 μg/mL. Subsequently, antibody B and antigen were mixed in a 1:1 volume ratio, pre-incubated at 37° C. for 45 minutes, added into the enzyme plate coated with antibody A, thus incubating the plate in an incubator at 37° C. for 1.5 hours. After incubation, the plate was washed for 5 times with PBST, and 50 μl/well of HRP-labeled streptavidin (Sigma, Cat No. 52438) diluted with sample dilution was added, followed by incubating the plate at 37° C. for 1 hour. After washing the plate 5 times with PBST, 50 μl/well of TMB chromogenic substrate (KPL, Cat No. 52-00-03) was added for color development, followed by adding 50 μl/well of 1M H₂SO₄ to stop the reaction. The absorption value was read at 450 nm with a NOVOStar microplate reader, and the OD value was used to determine whether A and B CD96 antibodies compete with each other. Antibodies that compete with each other fall into the same class of antibodies, otherwise belong to different classes of antibodies (see FIG. 3 and Table 18).
On to B1, for which the “competition (percent)” value is -8.5%. On the same count and under the same terms, to B2 belongs 100%; to B3, 84.6%.

Regarding B4, the “competition (percent)” value was found to be 98.7%. As to B5, the “competition (percent)” value amounted to 103%.

A further assay addresses T2, CD96 epitope peptide #3 IAVYHPQYGFYCAYGRPCES (47-66) (human).
T2 construct: also called 3# peptides; #3 antigen fragment
T2 peptide: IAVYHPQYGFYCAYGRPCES
The assay can be described thus: FACS on CD96-CHOs cells after pre-incubation of the antibody with the peptide; a fall of the MFI against antibody alone shows that the peptide occupies the antibody. The protocol: In order to verify that the binding of the antibody to CD96 protein polypeptide fragment is specific, we designed the following FACS for verification. While polypeptide fragments were incubated and bound to an antibody, epitopes of the antibody binding to CD96 protein were occupied, and then the signal of the antibody binding to CD96 protein on the cell surface decreased. The specific experimental methods are as follows:
The antibody samples were diluted to 1.2 μg/mL with 1% BSA, and the peptides were diluted to 40 μg/mL synchronously. The peptides and antibody sample were mixed at a volume ratio of 1:1 and pre-incubated at 37° C. for 90 minutes. CD96-CHOs cells were collected and washed once in PBS, then dispensed according to 0.5×10⁶/test. The cells with 100 μL of peptide-antibody mixture were resuspended, incubated at 4° C. for 1 hour, followed by washing 3 times with 1% BSA. Cells were resuspended with 100 μL dilution (1:400, 1:40, 1:100) of Alexa Fluor 488 anti-human IgG Fc (thermofisher, A-11013), PE goat anti-mouse IgG (Biolegend, Cat No. 405307), or PE goat anti-Rat IgG (Biolegend, Cat No. 405406), incubated at 4° C. for 40 minutes, followed by washing 3 times with 1% BSA. The cells were resuspended with 200 μL of 1% BSA, MFI of each sample was read on a flow cytometer BD FACSCanto II, and the data were analyzed with GraphPad Prism 5 to make a histogram. MFI difference between the sample without polypeptides incubation and the one incubated with polypeptides was used to determine the antigenic epitope recognized by the CD96 antibody.
Regarding B6, the binding result is “binds”.

Regarding B7, the binding result is reported as “binds”. The same measure, in the same setting: to B8 belongs “binds”.

The target in another assay is T3, CD96 epitope peptide #21 (310-329) (human).
T3 peptide: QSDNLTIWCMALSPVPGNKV
As to the kind of experiment: peptide ELISA ('-' indicates no binding, table note). The protocol:
(§1) The epitopes recognized by anti-CD96 antibody were detected by the assay of binding the antibody to different polypeptide fragments of CD96 protein. The fragments of different polypeptides of the CD96 antigen were coated on the microtiter plate. The signal density after the antibody was added was used to judge the binding activity of the antibody and the polypeptide. The specific experimental method is as follows:
(§2) The polypeptides were diluted to a concentration of 20 μg/ml with PBS buffer (Shanghai Yuanpei Biotechnology Co., Ltd. Cat No. B320), pH 7.4, added to a 96-well microtiter plate (Corning, Cat No. CLS3590-100EA) at a volume of 50 μl/well, and coated at 4° C. overnight. After discarding the liquid, 250 μl/well of 5% skim milk (BD skim milk, Cat No. 232100) blocking solution diluted with PBS was added, and the plate was incubated in an incubator at 37° C. for 3 hours. After blocking, the blocking solution was discarded, and the plate was washed 5 times with PBST buffer (pH 7.4 PBS containing 0.05% tween-20). 50 μl/well of different concentrations of the antibodies to be tested (hybridoma purification antibody or humanized antibody) diluted with sample dilution was added, and the plate was incubated in an incubator at 37° C. for 2 hours. […] After washing the plate 5 times with PBST, 50 μl/well of TMB chromogenic substrate (KPL, Cat No. 52-00-03) was added, the plate was incubated at room temperature for 5-15 min, followed by adding 50 μl/well of 1M H₂SO₄ to stop the reaction. The absorption value was read at 450 nm with a microplate reader (Thermo Scientific MuLtiskan MK3), and the epitopes that CD96 antibody can recognize were analyzed.
For the molecule B4, the binding result was “no binding”. Same read-out and setting: to B7 belongs “no binding”. Same read-out and setting: then B8, with “no binding”.

For a further assay, the target named is T4, CD96 epitope peptide #18 (265-284) (human).
T4 peptide: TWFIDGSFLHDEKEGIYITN
The assay is described as above. The protocol:
as §1, §2
Take B4: the binding result is listed as “no binding”. In the case of B7, the binding result is “no binding”. Still for that read-out and setting: then B8, with “no binding”.
